In the RNAGym collection of RNA variant scans (doi:10.7554/elife.90254) one finds self-cleavage data, which are given here for 56 variants.

B1: LINE1-mini (parent)
chain: GGCAGAGCUCAACACAGCGUGGCAAAGUGGCUGUGGCUAGACUGCC

In this data set the parent is B1. Briefly: self-cleavage, relative activity (ratio to wild type); higher = more cleavage; in vitro, sequencing; the parent is a self-cleaving ribozyme.
On to GGCAGAGCUCAACACACCGUGGCAAAGUGGAUGUGGCUAGACUGCC, for which the self-cleavage is 0.65. For GGCAGAGCUCAACACACCGUGGCAAAGUGGGUGUGGCUAGACUGCC, the self-cleavage was 0.14. For GGCAGAGCUCAACACACCGUGGCAAAGUGGUUGUGGCUAGACUGCC, the self-cleavage turned out to be 0.16. GGCAGAGCUCAACACACCAUGGCAAAGUGGCUGUGGCUAGACUGCC: the self-cleavage was determined as 1.14.

GGCAGAGCUCAACACACCCUGGCAAAGUGGCUGUGGCUAGACUGCC: the self-cleavage was found to be 1.39. Then GGCAGAGCUCAACACACCUUGGCAAAGUGGCUGUGGCUAGACUGCC, with 0.24; and GGCAGAGCUCAACACAACGUGGCAAAGUGGCUGUGGCUAGACUGCA, with 0.14; and GGCAGAGCUCAACACAACGUGGCAAAGUGGCUGUGGCUAGACUGCU, with 0.15.

For GGCAGAGCUCAACACAACGUGGCAAAGUGGCUGUGGCUAGACUGCG, the self-cleavage stood at 0.12.

As to GGCAGAGCUCAACACAACGUGGCAAAGUGGCUGUGGUUAGACUGCC, the self-cleavage was 0.05. As to GGCAGAGCUCAACACAACGUGGCAAAGUGGCUGUGGGUAGACUGCC, the self-cleavage came out at 0.05.

With GGCAGAGCUCAACACAACGUGGCAAAGUGGCUGUGGAUAGACUGCC, the self-cleavage came out at 0.05.

On to GGCAGAGCUCAACACACCGUGGCGAAGUGGCUGUGGCUAGACUGCC, for which the self-cleavage was found to be 0.71. Turning to GGCAGAGCUCAACACACCGUGGCUAAGUGGCUGUGGCUAGACUGCC, the self-cleavage was 0.6. Then GGCAGAGCUCAACACACCGUGGCCAAGUGGCUGUGGCUAGACUGCC, with 0.19.

GGCAGAGCUCAACACACCGUGGCAAAGUGGCUGUGGCUAGACUGAC: the self-cleavage is 0.16. In the case of GGCAGAGCUCAACACACCGUGGCAAAGUGGCUGUGGCUAGACUGGC, the self-cleavage amounted to 0.56. Then GGCAGAGCUCAACACACCGUGGCAAAGUGGCUGUGGCUAGACUGUC, with 0.84. In the case of GGCAGAGCUCAACACACGGUGGCAAAGUGGCUGUGGCUAGACUGCC, the self-cleavage worked out at 0.07.

GGCAGAGCUCAACACACUGUGGCAAAGUGGCUGUGGCUAGACUGCC: the self-cleavage turned out to be 0.08.

As for GGCAGAGCUCAACACACAGUGGCAAAGUGGCUGUGGCUAGACUGCC, the self-cleavage is 0.1. Take GGCAGAGCUCAACACAACGUGGCAAAGUGGCUGUUGCUAGACUGCC: the self-cleavage came out at 0.05.

Consider GGCAGAGCUCAACACAACGUGGCAAAGUGGCUGUAGCUAGACUGCC, for which the self-cleavage is 0.04. As to GGCAGAGCUCAACACAACGUGGCAAAGUGGCUGUCGCUAGACUGCC, the self-cleavage is 0.05. Consider GGCAGAGCUCAACACAACGGGGCAAAGUGGCUGUGGCUAGACUGCC, for which the self-cleavage came to 0.07.

As for GGCAGAGCUCAACACAACGCGGCAAAGUGGCUGUGGCUAGACUGCC, the self-cleavage stood at 0.12. Then GGCAGAGCUCAACACAACGAGGCAAAGUGGCUGUGGCUAGACUGCC, with 0.1.

As for GGCAGAGCUCAACACAACGUGGCAAAGUGGCUGUGGCUAGACUACC, the self-cleavage was determined as 0.04. Turning to GGCAGAGCUCAACACAACGUGGCAAAGUGGCUGUGGCUAGACUUCC, the self-cleavage turned out to be 0.03. To GGCAGAGCUCAACACAACGUGGCAAAGUGGCUGUGGCUAGACUCCC belongs 0.05; to GGCAGAGCUCAACACACCGUGGGAAAGUGGCUGUGGCUAGACUGCC, 1.22. Regarding GGCAGAGCUCAACACACCGUGGUAAAGUGGCUGUGGCUAGACUGCC, the self-cleavage is 1.61. Regarding GGCAGAGCUCAACACACCGUGGAAAAGUGGCUGUGGCUAGACUGCC, the self-cleavage was determined as 1.07. As to GGCAGAGCUCAACACAACGUCGCAAAGUGGCUGUGGCUAGACUGCC, the self-cleavage was 0.74. Then GGCAGAGCUCAACACAACGUAGCAAAGUGGCUGUGGCUAGACUGCC, with 0.22; and GGCAGAGCUCAACACAACGUUGCAAAGUGGCUGUGGCUAGACUGCC, with 0.83; and GGCAGAGCUCAACACACCGUGGCAAAGUGGCUGUGGCUAGGCUGCC, with 0.27.

As for GGCAGAGCUCAACACACCGUGGCAAAGUGGCUGUGGCUAGUCUGCC, the self-cleavage came to 0.49. With GGCAGAGCUCAACACACCGUGGCAAAGUGGCUGUGGCUAGCCUGCC, the self-cleavage is 0.04. Then GGCAGAGCUCAACACAACGUGGCAAAGUGGCAGUGGCUAGACUGCC, with 0.06. For the variant GGCAGAGCUCAACACAACGUGGCAAAGUGGCGGUGGCUAGACUGCC, the self-cleavage amounted to 0.06. To GGCAGAGCUCAACACAACGUGGCAAAGUGGCCGUGGCUAGACUGCC belongs 0.09; to GGCAGAGCUCAACACAACGUGGCAAAGUUGCUGUGGCUAGACUGCC, 0.07. Turning to GGCAGAGCUCAACACAACGUGGCAAAGUCGCUGUGGCUAGACUGCC, the self-cleavage is 0.68. Then GGCAGAGCUCAACACAACGUGGCAAAGUAGCUGUGGCUAGACUGCC, with 0.37; and GGCAGAGCUCAACACACCGUGGCAAAGUGGCUGUGGCUGGACUGCC, with 0.1.

GGCAGAGCUCAACACACCGUGGCAAAGUGGCUGUGGCUUGACUGCC: the self-cleavage is 0.29. Then GGCAGAGCUCAACACACCGUGGCAAAGUGGCUGUGGCUCGACUGCC, with 0.11; and GGCAGAGCUCAACACAACGUGGCAAAGUGGCUCUGGCUAGACUGCC, with 0.04; and GGCAGAGCUCAACACAACGUGGCAAAGUGGCUUUGGCUAGACUGCC, with 0.02. Then GGCAGAGCUCAACACAACGUGGCAAAGUGGCUAUGGCUAGACUGCC, with 0.05; and GGCAGAGCUCAACACACCGUGUCAAAGUGGCUGUGGCUAGACUGCC, with 1.51. As for GGCAGAGCUCAACACACCGUGCCAAAGUGGCUGUGGCUAGACUGCC, the self-cleavage came to 0.82. To GGCAGAGCUCAACACACCGUGACAAAGUGGCUGUGGCUAGACUGCC belongs 1.3.

As for GGCAGAGCUCAACACAACGUGGCAAAGUGGCUGUGGCUAGAUUGCC, the self-cleavage is 0.1. Then GGCAGAGCUCAACACAACGUGGCAAAGUGGCUGUGGCUAGAAUGCC, with 0.07.
